Reference: US6328728A, “Composition and method for enhancing electrotransport agent delivery” (Alza Corporation, priority 1997, dated 2001)

Assay: Measurement of circular dichroism (mean residue ellipticity at 222 nm)
Assay type: physicochemical
Conditions: for Ellipticity (mean residue at 222 nm) / Ellipticity (mean residue) (222 nm), raw / Ellipticity (mean residue) (222 nm), raw value: 32° C.
Text: In general, the structure of a polypeptide in an aqueous buffered solution is in constant flux between portions thereof being random coil and alpha-helix configurations. For the polypeptides used in the following examples, the predominant structure is a random coil since the alpha-helix configuration is unstable in the absence of bound surfactant. According to the present invention adding surfactant to an aqueous solution of a polypeptide stabilizes the alpha-helix configuration. Circular dichroism is a measurement of the amount of the alpha-helix configured polypeptide present in the solution. Thus, circular dichroism provides an indirect measurement of the degree of binding of the surfactant to the polypeptide. (See, for example, Epand R. M., Epand R. F., Orlowski R. C., Schuleter R. J., Boni L. T. and Hui S. W., Biochemistry 22, 5074-5084 (1983); Hui, S. W., Epand R. M., Dell K. R., Epand R. F. and Orlowski R. C., Biochimica Biophysica Acta 772, 264-272 (1984); Epand R. M., Epand R. F., and Orlowski R. C., International Journal Peptide Protein Research 25 105-111; Epand R. M., Epand R. F., Orlowski R. C., Seyler J. K. and Colescott R. L., Biochemistry 25, 1964-1968; Epand R. M., Seyler J. K. and Orlowski R. C., European Journal Biochemistry 159, 125-127 (1986); Wiersema P. H., Loeb A. L. and Overbeek, J., Colloid Interface Science 22, 78-99 (1966)).
The surfactant/peptide circular dichroism (CD) spectra were obtained in a 2 mm path-length cell (110-Q-2 Model, AVIV, Lakewood, N.J.) at 32° C. The cell was initially loaded with 0.60 mL of a solution containing about 0.25 mg/mL of the peptide in 10 mM sodium chloroacetate (pH 3.5) or 10 mM sodium borate (pH 9.0). The buffers were selected to minimize the effect of the temperature on the pH of the solution and to minimize light absorption, thereby optimizing the signal-to-noise ratio (SNR). The peptide concentration was determined by spectrophotometry, with log-log correction for light scattering. The surfactant concentration was increased step-wise by titration of concentrated surfactant stock directly into the CD cell, followed by eight inversions of the cell, with the air bubble providing the mixing turbulence. After mixing, the cell was placed into the AVIV 62 CD spectrometer (AVIV, Lakewood, N.J.). In order to approximate temperature and chemical equilibrium, the sample remained in the spectrometer 5 minutes before a reading was taken. The CD spectrum was taken using a band pass of 1 nm, a data interval of 1 nm, and a data averaging time of 10 seconds. The mean residue ellipticity is the ellipticity divided by the path length in cm times the amino acid residue concentration in decimoles/cm^3. See Methods in Enzymology, Vol 130, pp 208-269, Yang et al, "Calculation of Protein Conformation from Circular Dichroism" (1986).
The measurement procedures described above were conducted on an aqueous solution of the protein insulinotropin, with TWEEN® 20 (MW=1126 g/mol) as the surfactant, with the following modifications. The insulinotropin donor solution concentration was 0.12 mg/mL. One test was run in 10 mM sodium borate at pH 9.0 and another test in 10 mM sodium chloroacetate at pH 3.5.
Fractional changes (%δ) are defined as the difference between the reading at a given surfactant concentration (Ec) minus the reading at zero surfactant (E0), the quantity divided by the difference between the reading at saturated surfactant concentration (Es) minus the reading at zero surfactant (E0), i. e. %δ=(Ec -E0)/(Es-E0).
The measurement procedures described earlier were conducted on an aqueous solution of insulinotropin as the agent, and TWEEN® 40 (molecular weight 1282 g/mol) as the surfactant with the following changes. The insulinotropin concentration was initially 0.29 mg/mL, and 0.21 mg/mL after the final TWEEN® 40 addition and the temperature was held at 32° C. Two tests were conducted at two different concentrations of TWEEN® 40. […]

[1] = pH 3.5, 10 mM sodium chloroacetate, TWEEN 20 0
[2] = pH 3.5, 10 mM sodium chloroacetate, TWEEN 20 0.133 mM
[3] = pH 3.5, 10 mM sodium chloroacetate, TWEEN 20 0.266 mM
[4] = pH 9.0, 10 mM sodium borate, TWEEN 20 0
[5] = pH 9.0, 10 mM sodium borate, TWEEN 20 0.133 mM
[6] = pH 9.0, 10 mM sodium borate, TWEEN 20 0.266 mM
[7] = pH 9.0, 10 mM sodium borate, TWEEN 20 0.515 mM
[8] = pH 9.0, 10 mM sodium borate, TWEEN 20 1.00 mM
[9] = pH 9.0, 10 mM sodium borate, TWEEN 20 1.67 mM
[10] = pH 9.0, 10 mM sodium borate, TWEEN 20 2.56 mM
[11] = pH 9.0, 10 mM sodium borate, TWEEN 20 2.66 mM
[12] = pH 9.0, 10 mM sodium borate, TWEEN 20 4.00 mM
[13] = pH 9.0, 10 mM sodium borate, TWEEN 20 5.00 mM
[14] = pH 9.0, 10 mM sodium borate, TWEEN 20 7.04 mM
[15] = pH 9.0, 10 mM sodium borate, TWEEN 20 7.26 mM
[16] = pH 9.0, 10 mM sodium borate, TWEEN 20 9.41 mM
[17] = pH 9.0, 10 mM sodium borate, TWEEN 20 12.3 mM
[18] = pH 9.0, 10 mM sodium borate, TWEEN 20 17.7 mM
[19] = pH 9.0, 10 mM sodium borate, TWEEN 20 20.0 mM
[20] = pH 9.0, 10 mM sodium borate, TWEEN 20 22.1 mM

Insulinotropin: the protein insulinotropin
Ellipticity (mean residue at 222 nm) (pH 3.5, 10 mM sodium chloroacetate, DTAC 0): -4268 deg-cm^2 /dmol
Ellipticity (mean residue at 222 nm) (pH 3.5, 10 mM sodium chloroacetate, DTAC 0.83 mM): -5182 deg-cm^2 /dmol
Ellipticity (mean residue at 222 nm) (pH 3.5, 10 mM sodium chloroacetate, DTAC 1.64 mM): -7285 deg-cm^2 /dmol
Ellipticity (mean residue at 222 nm) (pH 3.5, 10 mM sodium chloroacetate, DTAC 3.23 mM): -9863 deg-cm^2 /dmol
Ellipticity (mean residue at 222 nm) (pH 3.5, 10 mM sodium chloroacetate, DTAC 5.51 mM): -11672 deg-cm^2 /dmol
Ellipticity (mean residue at 222 nm) (pH 3.5, 10 mM sodium chloroacetate, DTAC 9.10 mM): -11951 deg-cm^2 /dmol
Ellipticity (mean residue at 222 nm) (pH 3.5, 10 mM sodium chloroacetate, DTAC 13.0 mM): -12219 deg-cm^2 /dmol
Ellipticity (mean residue at 222 nm) (pH 3.5, 10 mM sodium chloroacetate, DTAC 25.0 mM): -12326 deg-cm^2 /dmol
Ellipticity (mean residue) (222 nm), raw [1]: -4877
Ellipticity (mean residue) (222 nm), raw [2]: -7087
Ellipticity (mean residue) (222 nm), raw [3]: -8437
Ellipticity (mean residue at 222 nm) (pH 3.5, 10 mM sodium chloroacetate, TWEEN 40 0): -4621 deg-cm^2 /dmol
Ellipticity (mean residue at 222 nm) (pH 3.5, 10 mM sodium chloroacetate, TWEEN 40 0.025 mM): -4997 deg-cm^2 /dmol
Ellipticity (mean residue at 222 nm) (pH 3.5, 10 mM sodium chloroacetate, TWEEN 40 0.092 mM): -6045 deg-cm^2 /dmol
Ellipticity (mean residue at 222 nm) (pH 3.5, 10 mM sodium chloroacetate, TWEEN 40 0.214 mM): -7317 deg-cm^2 /dmol
Ellipticity (mean residue at 222 nm) (pH 3.5, 10 mM sodium chloroacetate, TWEEN 40 0.390 mM): -8554 deg-cm^2 /dmol
Ellipticity (mean residue at 222 nm) (pH 3.5, 10 mM sodium chloroacetate, TWEEN 40 0.718 mM): -10379 deg-cm^2 /dmol
Ellipticity (mean residue at 222 nm) (pH 3.5, 10 mM sodium chloroacetate, TWEEN 40 1.21 mM): -12282 deg-cm^2 /dmol
Ellipticity (mean residue at 222 nm) (pH 3.5, 10 mM sodium chloroacetate, TWEEN 40 2.06 mM): -14017 deg-cm^2 /dmol
Ellipticity, fractional change (% δ) [1]: 0
Ellipticity, fractional change (% δ) [2]: 0.21
Ellipticity, fractional change (% δ) [3]: 0.34
Ellipticity, fractional change (% δ) (pH 3.5, 10 mM sodium chloroacetate, TWEEN 20 0.515 mM): 0.58
Ellipticity, fractional change (% δ) (pH 3.5, 10 mM sodium chloroacetate, TWEEN 20 1.00 mM): 0.59
Ellipticity, fractional change (% δ) (pH 3.5, 10 mM sodium chloroacetate, TWEEN 20 1.67 mM): 0.91
Ellipticity, fractional change (% δ) (pH 3.5, 10 mM sodium chloroacetate, TWEEN 20 2.28 mM): 0.96
Ellipticity, fractional change (% δ) (pH 3.5, 10 mM sodium chloroacetate, TWEEN 20 3.20 mM): 0.97
Ellipticity, fractional change (% δ) (pH 3.5, 10 mM sodium chloroacetate, TWEEN 20 4.44 mM): 1.00
Ellipticity (mean residue) (222 nm), raw value [4]: -5010
Ellipticity (mean residue) (222 nm), raw value [5]: -5641
Ellipticity (mean residue) (222 nm), raw value [6]: -6252
Ellipticity (mean residue) (222 nm), raw value [7]: -6553
Ellipticity (mean residue) (222 nm), raw value [8]: -7050
Ellipticity (mean residue) (222 nm), raw value [9]: -7857
Ellipticity (mean residue) (222 nm), raw value [10]: -7915
Ellipticity (mean residue) (222 nm), raw value [11]: -8970
Ellipticity (mean residue) (222 nm), raw value [12]: -9165
Ellipticity (mean residue) (222 nm), raw value [13]: -9124
Ellipticity (mean residue) (222 nm), raw value [14]: -10288
Ellipticity (mean residue) (222 nm), raw value [15]: -9702
Ellipticity (mean residue) (222 nm), raw value [16]: -10451
Ellipticity (mean residue) (222 nm), raw value [17]: -10540
Ellipticity (mean residue) (222 nm), raw value [18]: -10709
Ellipticity (mean residue) (222 nm), raw value [19]: -10876
Ellipticity (mean residue) (222 nm), raw value [20]: -10872
Ellipticity, fractional change (% δ) [4]: 0
Ellipticity, fractional change (% δ) [5]: .11
Ellipticity, fractional change (% δ) [6]: .21
Ellipticity, fractional change (% δ) [7]: .26
Ellipticity, fractional change (% δ) [8]: .35
Ellipticity, fractional change (% δ) [9]: .49
Ellipticity, fractional change (% δ) [10]: .50
Ellipticity, fractional change (% δ) [11]: .68
Ellipticity, fractional change (% δ) [12]: .71
Ellipticity, fractional change (% δ) [13]: .70
Ellipticity, fractional change (% δ) [14]: .90
Ellipticity, fractional change (% δ) [15]: .80
Ellipticity, fractional change (% δ) [16]: .92
Ellipticity, fractional change (% δ) [17]: .94
Ellipticity, fractional change (% δ) [18]: .97
Ellipticity, fractional change (% δ) [19]: 1.00
Ellipticity, fractional change (% δ) [20]: 1.00
